Target: POU2F1 (OCT-1) POU DNA-binding domain, wild type (Homo sapiens, UniProt P14859 280-438)
Assay: EMSA; dose-dependent, saturation at ~0.8 uM protein; EMSA: 20 mM HEPES pH 7.9, 2 mM MgCl2, 10% glycerol, 2 mM DTT, 36 ng poly(dI-dC), 20 min room temperature; 5% native gel, 0.5x TBE, 4 C
Settings: protein: recombinant; tags: GST fusion, thrombin-cleaved when indicated (state in EMSA not explicit); label: 5'-32P; blunt

POU2F1 (OCT-1) POU DNA-binding domain, wild type, sequence (P14859 280-438): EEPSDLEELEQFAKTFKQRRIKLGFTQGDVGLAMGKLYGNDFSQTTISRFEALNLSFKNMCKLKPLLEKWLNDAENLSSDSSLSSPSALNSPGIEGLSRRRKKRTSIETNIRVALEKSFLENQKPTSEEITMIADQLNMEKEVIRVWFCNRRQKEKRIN

B1: ESR1 promoter POU2F1 element probe (-56 to -42) (dsDNA)
DNA 1: GCTATGGCCTATGCATATGAAGCCTTTATT
DNA 2: AATAAAGGCTTCATATGCATAGGCCATAGC
B1: binds.

Source: PMC13280575, “The PER2:BRCA1:POU2F1(OCT-1) ternary complex represents a multi-component scaffold model for circadian gene regulation”
